{"source": "paper PMC4493562", "about": "“Mechanistic studies of a novel C-S lyase in ergothioneine biosynthesis: the involvement of a sulfenic acid intermediate” (Scientific Reports, 2015)", "proteins": {"B1": {"name": "EgtE (Mycolicibacterium smegmatis MC2 155) (protein)", "chain": "MMLAQQWRDARPKVAGLHLDSGACSRQSFAVIDATTAHARHEAEVGGYVAAEAATPALDAGRAAVASLIGFAASDVVYTSGSNHAIDLLLSSWPGKRTLACLPGEYGPNLSAMAANGFQVRALPVDDDGRVLVDEASHELSAHPVALVHLTALASHRGIAQPAAELVEACHNAGIPVVIDAAQALGHLDCNVGADAVYSSSRKWLAGPRGVGVLAVRPELAERLQPRIPPSDWPIPMSVLEKLELGEHNAAARVGFSVAVGEHLAAGPTAVRERLAEVGRLSRQVLAEVDGWRVVEPVDQPTAITTLESTDGADPASVRSWLIAERGIVTTACELARAPFEMRTPVLRISPHVDVTVDELEQFAAALREAP", "notes": "cloning details in supplement"}}, "key": {"[1]": {"substrate": "C[N+](C)(C)[C@@H](Cc1cnc(SC[C@H](N)C(=O)O)[nH]1)C(=O)[O-]", "assay": "purified protein", "format": "biochemical, Mycolicibacterium smegmatis", "details": "50 mM KPi pH 8.0, 1.0 mM DTT, 10 nM EgtE, 0.13 mM NADH, LDH"}, "[2]": {"substrate": "C[N+](C)(C)[C@@H](Cc1cnc([S+]([O-])C[C@H](N)C(=O)O)[nH]1)C(=O)[O-]", "assay": "purified protein", "format": "biochemical, Mycolicibacterium smegmatis", "details": "50 mM KPi pH 8.0, 1.0 mM DTT, 10 nM EgtE, 0.13 mM NADH, LDH"}}}
{"protein": "B1", "values": [{"measurement": "Km", "setting": "[1]", "value": "1960 ± 250", "unit": "µM"}, {"measurement": "kcat", "setting": "[1]", "value": "7.93 ± 0.05", "unit": "s⁻¹"}, {"measurement": "Km", "setting": "[2]", "value": "121.2 ± 6.6", "unit": "µM"}, {"measurement": "kcat", "setting": "[2]", "value": "25.27 ± 0.45", "unit": "s⁻¹"}]}
